Here are results for two molecules from publication PMC7600425, “Modulation of Guanylate Cyclase Activating Protein 1 (GCAP1) Dimeric Assembly by Ca^2+ or Mg^2+: Hints to Understand Protein Activity” (Biomolecules, 2020).

For one data set, the target named is RetGC (Homo sapiens) (UniProt Q02846). The note with it: cited from earlier work.
Data set [1] deals with the molecule itself. The data set can be described thus: MST; NT-647-NHS-labelled hGCAP1 with 16 dilutions of unlabelled hGCAP1 (46.6 µM to 11.4 nM); 20 mM Tris-HCl, 100 mM NaCl, pH 7.5, 1 mM DTT, 5 mM CaCl2, 0.05% Tween20; 24 °C; Ca2+-bound; dimer to monomers.
Data set [2] concerns the molecule itself. The data set can be described thus: SEC; analytical SEC, Superdex 75 Increase 10/300 GL, dilution series; 20 mM Tris-HCl pH 8.0, 100 mM NaCl, 1 mM DTT, 5 mM MgCl2, 2.5 mM EGTA; Mg2+-bound; Kd from a 3-parameter fit of elution volume against concentration; dimer to monomers.
Data set [3] concerns the molecule itself. The data set can be described thus: MST; NT-647-NHS-labelled hGCAP1 with dilutions of unlabelled hGCAP1; 20 mM Tris-HCl, 150 mM KCl, 5 mM MgCl2, 2.5 mM EGTA, pH 7.5, 1 mM DTT, 0.05% Tween20; Mg2+-bound; dimer to monomers.
Data set [4] deals with the molecule itself. The data set can be described thus: SEC; analytical SEC, Superdex 75 Increase 10/300 GL, six dilutions (87-2 µM injected); 20 mM Tris-HCl pH 8.0, 100 mM NaCl, 1 mM DTT, 5 mM CaCl2; Ca2+-bound; Kd from a 3-parameter fit of elution volume against concentration; dimer to monomers. In general terms: Size exclusion chromatography separates by hydrodynamic size, large species first.

RetGC (Homo sapiens), sequence (Q02846 52-1103): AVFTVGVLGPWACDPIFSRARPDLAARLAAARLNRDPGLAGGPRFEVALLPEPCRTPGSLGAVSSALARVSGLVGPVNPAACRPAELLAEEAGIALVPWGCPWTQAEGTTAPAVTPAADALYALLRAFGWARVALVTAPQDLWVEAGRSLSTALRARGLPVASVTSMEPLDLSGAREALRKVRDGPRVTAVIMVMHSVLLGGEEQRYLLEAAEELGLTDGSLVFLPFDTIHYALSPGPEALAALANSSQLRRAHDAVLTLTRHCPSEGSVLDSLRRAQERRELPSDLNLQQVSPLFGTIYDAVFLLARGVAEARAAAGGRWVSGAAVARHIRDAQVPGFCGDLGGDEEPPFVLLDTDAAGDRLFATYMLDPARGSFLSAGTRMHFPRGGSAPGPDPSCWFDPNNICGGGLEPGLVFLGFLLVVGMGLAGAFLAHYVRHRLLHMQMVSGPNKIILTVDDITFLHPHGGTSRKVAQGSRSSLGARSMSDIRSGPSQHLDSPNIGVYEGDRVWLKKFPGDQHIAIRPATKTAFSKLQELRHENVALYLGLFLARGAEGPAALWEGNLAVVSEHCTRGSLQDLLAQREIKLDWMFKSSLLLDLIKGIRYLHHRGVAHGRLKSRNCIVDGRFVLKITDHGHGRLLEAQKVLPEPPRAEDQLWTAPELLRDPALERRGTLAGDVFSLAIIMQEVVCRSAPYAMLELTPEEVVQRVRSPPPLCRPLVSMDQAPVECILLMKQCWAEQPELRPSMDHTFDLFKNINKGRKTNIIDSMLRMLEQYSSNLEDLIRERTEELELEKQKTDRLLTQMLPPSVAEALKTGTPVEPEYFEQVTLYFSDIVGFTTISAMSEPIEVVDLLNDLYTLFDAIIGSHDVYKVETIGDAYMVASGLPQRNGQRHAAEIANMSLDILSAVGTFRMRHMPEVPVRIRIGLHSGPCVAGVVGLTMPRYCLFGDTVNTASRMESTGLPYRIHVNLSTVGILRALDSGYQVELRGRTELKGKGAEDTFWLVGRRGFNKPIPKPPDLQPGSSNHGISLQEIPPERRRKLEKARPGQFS

In general, Kd refers to a measure of binding affinity in units of concentration. Consider GCAP1 (from UniProt P43080), for which the dissociation constant (Kd) in the data set with RetGC (Homo sapiens) is 3.2 µM.

B1: human guanylyl cyclase-activating protein 1 (hGCAP1), N-terminally myristoylated, E6S (natural protein, UniProt P43080 1-201, looked up)
chain: MGNVMSGKSVEELSSTECHQWYKKFMTECPSGQLTLYEFRQFFGLKNLSPSASQYVEQMFETFDFNKDGYIDFMEYVAALSLVLKGKVEQKLRWYFKLYDVDGNGCIDRDELLTIIQAIRAINPCSDTTMTAEEFTDTVFSKIDVNGDGELSLEEFIEGVQKDQMLLDTLTRSLDLTRIVRRLQNGEQDEEGADEAAEAAG
modifications: N-terminal myristoylation (myristoylated Gly at the N-term); in the MST experiments the labelled copy carries the dye NT-647-NHS on primary amines (lysine residues), about 1:1
notes: printed as 201 amino acids, 22.9 kDa; E6S needed for myristoylation in E. coli; In MST a dye-labelled copy was titrated with unlabelled protein; also called human GCAP1; recombinant human (h) GCAP1; source: E. coli BL21-CodonPlus RP, co-expressed with yeast N-myristoyltransferase, purified (ion exchange, SEC)
A word on the stoichiometry N: it is the number of molecules, sites or subunits per partner or assembly. Turning to B1, the Kd in data set [1] stood at 9.4 ± 1.3 µM; in data set [2], 45 ± 15 µM; in data set [3], 77.2 ± 8.9 µM; in data set [4], 8.8 ± 0.7 µM. Also, in data set [4], the “stoichiometry N” value is 2.
